These results are taken from paper PMC6090078.

This data set concerns T1, AcrR (His6-AcrR) (Acinetobacter nosocomialis ATCC 17903 (NCTC 8102)?), ORF:b0b0015b.
T1 sequence: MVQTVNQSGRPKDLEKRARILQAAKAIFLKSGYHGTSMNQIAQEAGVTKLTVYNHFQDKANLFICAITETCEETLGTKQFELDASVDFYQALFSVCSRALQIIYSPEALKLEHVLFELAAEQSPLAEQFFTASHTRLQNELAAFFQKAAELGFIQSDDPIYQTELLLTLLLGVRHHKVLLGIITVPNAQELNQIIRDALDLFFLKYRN
As to the kind of experiment: EMSA. Background: A gel shift assay detects complexes by their altered migration in electrophoresis.

Regarding “AAAACCCTCTAATAAAAGATTAAAAAAATAAATATTTATAAGTTTTTTTTAATTAATGTACCCATGGGTATATTAATTAAAAAACAAACAAACTATGATGCAAGCATATTGTGCCTTAAAAAATCAGTTTGAATAAGAGCGATAAGAT (double strand) [PacrA/acrR promoter fragment, 148 bp]”, the binding entry is listed as “binds”.
